Assay: yeast display, Sf9 membrane polyspecificity reagent, FACS + sequencing; frameworks hold sequencing errors
How it was run: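 Galactose induction of a Saccharomyces cerevisiae BJ5465 synthetic nanobody display library ran 36–48 hours. The cells were then stained for 1 hour at 4 °C with 10% biotinylated, detergent-solubilized Sf9 membrane reagent, pulled down on streptavidin microbeads and FACS-sorted into low and high (top ~1%) gates on expression and reagent-binding fluorescence. Labels for polyreactivity follow the gate of origin.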

| Sequence | polyreactivity (PSR sort gate) |
| --- | --- |
| QVQLVESGGGLVQAGGSLRLSCAASGSIFPRNAMGWYRQAPGKERELVAAITTTGGITHYADSVKGRFTISRDNAKNTVYLQMNSLKPEDTAVYYCNASYEYNAGRVETEYDYWGQGTQVTVSS | low polyreactivity |
| QVQLVESGGGLVQAGGSLRLSCAASGSIFPSNAMGWYRQAPGKERELVAAINRDGITNYADSVKGRFTISRDNAKNTVYLQMNSLKPEDTAVYYCNAYNYDFYASFWYEVDYWGLGTQVTVSS | low polyreactivity |
| QVQLVESGGGLVQAGGSLRLSCAASGSIFPSNAMGWYRQAPGKERELVATIGRGGTTNYADSVKGRFTISRDNAKNTVYLQMNSLKPEDTAVYYCNAERIWRYKYGYDYWGQGTQVTVSS | high polyreactivity |
| QVQLVESGGGLVQAGGSLRLSCAASGSIFPSYAMGWYRQAPGKERELVAAISVSGGSTYYADSVKGRFTISRDTAKNTVYLQMNSLKPEDTAVYYCAAQHGYPRYYYWGQGTQVTVSS | high polyreactivity |
| QVQLVESGGGLVQAGGSLRLSCAASGSIFPTNAMGWYRQAPGKERELVAAITGNGGRTYYADSVKGRFTISRDNAKNTVYLQMNSLKPEDTAVYYCAALTYASNRYGYWGQGTQVTVSS | high polyreactivity |
| QVQLVESGGGLVQAGGSLRLSCAASGSIFPVNTMGWYRQAPGKERELVAAITQRGGRTYYADSVKGRFTISRDNAKNTVYLQMNSLKPEDTAVYYCNRDLGAGGYDYWGQGTQVTVSS | low polyreactivity |
| QVQLVESGGGLVQAGGSLRLSCAASGSIFPVYAMGWYRQAPGKDRELDATITDGGGDTYYADSVMGRFTISRDNAKNTVYLQMNSLKPEDTAVLYCAARSIPEWSAYWYDYWGQGTQVTVSS | low polyreactivity |
| QVQLVESGGGLVQAGGSLRLSCAASGSIFPVYAMGWYRQAPGKERELVAAISLRAGNTYYADSVKGRFTISRDNAKNTVYLQMNSLKPEDTAVYYCAVEWFRSTTIFDYWGQGTQVTVSS | high polyreactivity |
| QVQLVESGGGLVQAGGSLRLSCAASGSIFPWNTMGWYRQAPGKERELVARISTSGASTYYADSVKGRFTISRDNAKNTVYLQMNSLKPEDTAVYYCAARKRPFYKYDYWGQGTQVTVSS | high polyreactivity |
| QVQLVESGGGLVQAGGSLRLSCAASGSIFPWYAMGWYRQAPGKERELVAAITISGGSTHYADSVKGRFTISRDNAKNTVYLQMNSLKPEDTAVYYCATPRYPSYEYWGQGTQVTVSS | low polyreactivity |
| QVQLVESGGGLVQAGGSLRLSCAASGSIFPYAMGWYRQAPGKERELVAAITSGVRTNYADSVKGRFTISRDNAKNTVYLQIYSLKPEDTAVYYCAARYFPHYYSKYDYWGQGTQVTVSS | low polyreactivity |
| QVQLVESGGGLVQAGGSLRLSCAASGSIFPYNAMGWYRQAPGKERELVAAITSSGGRTYYADSVKGRFTISRDNAKNTVYLQMNSLKPEDTAVYYCAVEANYHTYWLYYWGQGTQVTVSS | high polyreactivity |
| QVQLVESGGGLVQAGGSLRLSCAASGSIFPYNAMGWYRQAPGKERQLVARISWSGGSTYYADSVKGRFTISRDNAKNTVYLQMNSLKPEDTAVYYCAATIIFDAQYRFYYWGQGTQVTVSS | low polyreactivity |
| QVQLVESGGGLVQAGGSLRLSCAASGSIFPYNAMGWYRQPPGKERELVATISSGGSTNYADSVKGRFTISRDNAKNTVYLQMNSLKPEDTAVFYCAADVIVFYYAPNYWGDIEYGYWGQGTQVTVSS | low polyreactivity |
| QVQLVESGGGLVQAGGSLRLSCAASGSIFPYNVMGWYRQAPGKERELVAAISTRGGRTYYADSVKGRFTISRDNAKNTVYLQMNSLKPEDTAVYYCATAGGPYSASGYYWGQGTQVTVSS | high polyreactivity |
| QVQLVESGGGLVQAGGSLRLSCAASGSIFPYYAMGWYRPAPGKERELVASINQSDGTTYYADSVKGRFTISRDNAKNTVYLQMNRLKPEDTAVSYCAADTTLQDFIRYRPMGSYDSWGQGTQVTVSS | low polyreactivity |
| QVQLVESGGGLVQAGGSLRLSCAASGSIFPYYAMGWYRQAPGKERELVARITWRSTSTYADSVKGRFTISRDNAKNTVYLQMNSLKPEDTAVYYCAVRLLSTYIIEYDHWGQGTQVTVSS | low polyreactivity |
| QVQLVESGGGLVQAGGSLRLSCAASGSIFPYYTMGGYRQAPGKERELVAVISSGGSTNYAVSVKGRFTISRDNAKNTVYLQMNSLKPEDTAVYYCNARRYWLRYDYWGLGTQVTVSS | low polyreactivity |
| QVQLVESGGGLVQAGGSLRLSCAASGSIFPYYTMGWYRQAPGKERELVAAISGSGTSTYYADSVKGRFTISRDNAKNTVYLQMISLKPEDTAVYYCAKRFRYGYVNYYYWGQGTQVTVSS | low polyreactivity |
| QVQLVESGGGLVQAGGSLRLSCAASGSIFQGYALGWYRQAPGKERELVAAITASGGSTYYADSVKGRFTISRDNAKNTVYLQMNSLKPEDTAVYYCATDSYWRQDLYRYEYWGQGTQVTVSS | high polyreactivity |
| QVQLVESGGGLVQAGGSLRLSCAASGSIFQGYAMGWYRQAPGKERELVAGITSSGGSTHYADSVKGRFTISRDNAKNTVYLQMNSLKPEDTAVYDYWGQGTQVTVSS | low polyreactivity |
| QVQLVESGGGLVQAGGSLRLSCAASGSIFQHYAMGLYRQAPGKERELVAAISYDTTSTYYADSVKGRFTISRDNAKNTVYLQMNSLKPEDTAVYYCNTYPEVYGPFQYDYWGQGTQVTVSS | low polyreactivity |

| Sequence | polyreactivity (PSR sort gate) |
| --- | --- |
| QVQLVESGGGLVQAGGSLRLSCAASGSIFQINAMGWYRPAPGKERECVASITYSGGSTYYADSVKGRFTISRDNAKNTVYLQMNSLKPEDTAVYYCAAESYWGYDYWGQGTQVTVSS | high polyreactivity |
| QVQLVESGGGLVQAGGSLRLSCAASGSIFQINVMGWYRQAPGKERELVAASYADSVKGRFTISRDNAKNTVYLQMNSLKPEDTAVYYCARSNPAYSIYDYWGQGTQVTVSS | low polyreactivity |
| QVQLVESGGGLVQAGGSLRLSCAASGSIFQINVMGWYRQAPGKERELVAASYADSVKGRFTISRDNAKNTVYVQMNSLKPEDTAVYYCARTNPAYSIYDYWGQGTQVTVSS | low polyreactivity |
| QVQLVESGGGLVQAGGSLRLSCAASGSIFQKNAMGWYRQAPGKERELVATIRWSGGRTYYADSVKGRFTISRDNAKNTVYLQMNSLKPEDTAVYYCNAGYKGDYDYWGQGTQVTVSS | high polyreactivity |
| QVQLVESGGGLVQAGGSLRLSCAASGSIFQNYAMGWYRQAPGKERELVAAINDDSTYYADSVKGRFTISRDNAKNTVYLQMNSLKPEDTAVYYCNAEDYVTLKIDLSWPYGYWGQGTQVTVSS | low polyreactivity |
| QVQLVESGGGLVQAGGSLRLSCAASGSIFQRNAMGWYRQAPGKERELVAAISRSGGRTYYADSVKGRFTISRDNAKNTVYLQMNILKPEDTAVYYCAADSPYIQNRFEYWGQGTQVTVSS | high polyreactivity |
| QVQLVESGGGLVQAGGSLRLSCAASGSIFQRYAMGWYRQAPGKEREFVAAISGRGGSTYYADSVKGRFTISRDNAKNTVYLQMNSLKPEDTAVYYCAVRGRSYVRTYDYWGQGTQVTVSS | high polyreactivity |
| QVQLVESGGGLVQAGGSLRLSCAASGSIFQSNAMGWDRQAPGKERELVAAISSSGVRTYYADSVKGRFTISRDNAKNTVYLQMNSLKPEDTAVYYCATGWYYAGGPTYEYYYWGQGTQVTVSS | low polyreactivity |
| QVQLVESGGGLVQAGGSLRLSCAASGSIFQSNAMGWYRQPPGKERELVAAISSSGVRTYYADSVKGRFTISRDNAKNTVYLQMNSLKPEDTAVYFCATGWYYAGGPTYEYYYWGQGTQVTVSS | low polyreactivity |
| QVQLVESGGGLVQAGGSLRLSCAASGSIFQSYAMGWYRQAPGKERELVAAITERGGSTYYADSVKGRFTISRDTAKNTVYLQMNSLKPEDTAVYYCAADIYYWWCLSDLYTPTEGDYWGQGTQVTVSS | low polyreactivity |
| QVQLVESGGGLVQAGGSLRLSCAASGSIFQVYAMGWYRQAPGKERELVAAISGGGSSTYYADSVKGRFTISRDNAKNTVYLQMNSLKPEDTAVYYCAAAYSWYDNNRYDYWGQGTQVTVSS | low polyreactivity |
| QVQLVESGGGLVQAGGSLRLSCAASGSIFQVYSMGWYRQAPGKEREFVAAISFSGGGTYYADSVKGRFTISRDNAKNTVYLQMNSMKPEDTAVYYCAADVSGWEYDYWGQGTQVTVSS | low polyreactivity |
| QVQLVESGGGLVQAGGSLRLSCAASGSIFQYNTMGWYRQAPGKERELVAAINWSGVSTYYADSVKGRFTISRDNAKNTVYLQMNILKPEDTAVYYCNARRYVDGSYIYDRGYWGQGTQVTVSS | high polyreactivity |
| QVQLVESGGGLVQAGGSLRLSCAASGSIFQYNVKGWYIQAPGTERELVAAITSGGSTYYADSVKGRFTISRDNAKNTVYLQMNSLKPEDTAVYYCARDIRRKGFRYDYWGQGTQVTVSS | high polyreactivity |
| QVQLVESGGGLVQAGGSLRLSCAASGSIFQYYAMGWYRQAAGKERELVAAISGSGGRTYYADSVKGRFTISRDNAKNTVYLQMNSLKPEDTAVYYCNTVWWKQYNYWGQGTQVTVSS | high polyreactivity |
| QVQLVESGGGLVQAGGSLRLSCAASGSIFQYYGMGWYRQAPGKERELVASISRSGGSTYYADSVKGRFTISRDNAKNTVYLQMNSLKPEDTAVYYCNKRTYRQLSSWDYTYYYWGQGTQVTVSS | low polyreactivity |
| QVQLVESGGGLVQAGGSLRLSCAASGSIFQYYVMGWYRQAPGKERELDAAIRRSGTTYYADSVKGRFTISRDNAKNTVYLQMNSLKPEDTAVDYCNADSIYYYYLIEYEYWGQGSQVTVSS | low polyreactivity |
| QVQLVESGGGLVQAGGSLRLSCAASGSIFRANAMGWYRQAPGKEREMVAAISYSGGSTYYADSVKGRFSISRDNAKNTVYLLMNSLKPEDTAVYYCAAEFLYASVYYSYWGQGTQVTVSS | high polyreactivity |
| QVQLVESGGGLVQAGGSLRLSCAASGSIFRAYAMGWYRQAPGKEGELVATITSGGRTNYADSVKGRFTISRDNAKNTVYLQMNSLKPEDTAVYYCNADHWLYYGAGYDYWGQGTQVTVSS | low polyreactivity |
| QVQLVESGGGLVQAGGSLRLSCAASGSIFRDNGMGWYRQAPGKERELVAAINSGDSTYYADSVKGRFTISRDNAKNTVYLQMNSLKPEDTAVYYCNADDRRALSQRQYDWYDYWGQGTQVTVSS | low polyreactivity |
| QVQLVESGGGLVQAGGSLRLSCAASGSIFRDYVMGWYRQAPGKERELVAAISGNDGSTYYADSVKGRFTISRDNAKNTVYLQMNSLKPEDTAVYYCNADEASTVPLFYSYLDFDYWGQGTQVTVSS | low polyreactivity |

Reference: the nanobody polyreactivity screen of Harvey et al. (2022)
